Test results from the DeepSol protein solubility set.

Assay: soluble on expression in E. coli; label from the status in PepcDB or PDB records

Soluble on expression in E. coli, soluble:
SLVPRVMSTQHPDNARIPFFAASEVLNGEDEVREAYYVFSHFKCDEQMWDFEGKEADAHIVRKLLSSYYDFFSSRPLGKDFRLTMRVPNPEIEKGEAKLLAETLEMIPRSYDYVRSLGIEHPPIFEVILPMTRSAEEVMKVHAFYRDFVAGKGRFELLGEKVSDWLGDFLPEEIKVIPLFEDRDSLMRAAEISERYAEWAELDELRVFLARSDPAMNYGFVAATIYVKKALYDLSQLGISTYPILGVGSCPFRGGFSPKNLSVLDEFPSVYTFTVQSAFKYDYEFGDVRRAIKRAKEAARRKSDYVDEEHLQVAEKLKDGYRRRIAKIAEIVNRISSRIPRRRMRKLHVGLFGYSRGEEIKLPRAITFCASLYSIGLPSEIIGIAEMSDKDYEAVCEVFKNFDGMMESAMSLFNPESLKIVDLSMDFERAKELFGYEPDERHLEKTNEIIKQIDGDIKNLVVEAGILRGFLG
SLWQPQTGDIIFQISRSSQSKAIQLATHSDYSHTGMLVMRNKKPYVFEAVGPVKYTPLKQWIAHGEKGKYVVRRVEGGLSVEQQQKLAQTAKRYLGKPYDFSFSWSDDRQYCSEVVWKVYQNALGMRVGEQQKLKEFDLSNPLVQAKLKERYGKNIPLEETVVSPQAVFDAPQLTTVAKEWPLFSW
SLYMDTAVSPFYFVSNAPRELLDGVSQTLASRDQLELENRALRQELLLKNSELLMLGQYKQENARLRELLGSPLRQDEQKMVTQVISTVNDPYSDQVVIDKGSVNGVYEGQPVISDKGVVGQVVAVAKLTSRVLLICDATHALPIQVLRNDIRVIAAGNGCTDDLQLEHLPANTDIRVGDVLVTSGLGGRFPEGYPVAVVSSVKLDTQRAYTVIQARPTAGLQRLRYLLLLWGADRNGANPMTPEEVHRVANERLMQMMPQVLPSPDAMGPKLPEPATGIAQPTPQQPATGNAATAPAAPTQPAANRSPQRATPPQSGAQPPARAPGGQ
SMGDREQLLQRARLAEQAERYDDMASAMKAVTELNEPLSNEDRNLLSVAYKNVVGARRSSWRVISSIEQKTMADGNEKKLEKVKAYREKIEKELETVCNDVLSLLDKFLIKNCNDFQYESKVFYLKMKGDYYRYLAEVASGEKKNSVVEASEAAYKEAFEISKEQMQPTHPIRLGLALNFSVFYYEIQNAPEQACLLAKQAFDDAIAELDTLNEDSYKDSTLIMQLLRDNLTLWTSDQQDEEAGEGN
SMGTRPRRKKHDYRIALFGGSQPQSCRYFNPKDYSWTDIRCPFEKRRDAACVFWDNVVYILGGSQLFPIKRMDCYNVVKDSWYSKLGPPTPRDSLAACAAEGKIYTSGGSEVGNSALYLFECYDTRTESWHTKPSMLTQRCSHGMVEANGLIYVCGGSLGNNVSGRVLNSCEVYDPATETWTELCPMIEARKNHGLVFVKDKIFAVGGQNGLGGLDNVEYYDIKLNEWKMVSPMPWKGVTVKCAAVGSIVYVLAGFQGVGRLGHILEYNTETDKWVANSKVRAFPVTSCLICVVDTCGANEETLET
SMMDLFETGSYFFYLDGENVTLQPLEVAEGSPLYPGSDGTLSPCQDQMPPEAGSDSSGEEHVLAPPGLQPPHCPGQCLIWACKTCKRKSAPTDRRKAATLRERRRLKKINEAFEALKRRTVANPNQRLPKVEILRSAISYIERLQDLLHRLDQQEKMQELGVDPFSYRPKQENLEGADFLRTCSSQWPSVSDHSRGLVITAKEGGASIDSSASSSLRCLSSIVDSISSEERKLPCVEEVVEK
SMQICDTYNQKHSLFNAMNRFIGAVNNMDQTVMVPSLLRDVPLSEPEIDEVSVEVGGSGGCLEERTTPAPSPGSANESFFAPSRDMYSHYVLLKSIRNDIEWGVLHQPSSPPAGSEESTWKPKDILVGLSHLESADAGEEDLEQQFHYHLRGLHTVLSKLTRKANILTNRYKQEIGFSNWGH
SMRPPIVIHSSGKKYGFSLRAIRVYMGDSDVYTVHHVVWSVEDGSPAQEAGLRAGDLITHINGESVLGLVHMDVVELLLKSGNKISLRTTALENTETSV
SMSEHSAIVTWKRKDSEAFTDNQYSRAHTWEFDGGSKILASASPHVVPVPLSVEANVDPEEAFVAALSSCHMLVFLSIAAKQRYLVESYTDNAVGILGKNSKGKTSVTKVVLRPQVVFSGTSKPTLQQLEKMHHLAHENCFIANSVETEVVTEII
SMVFDSESNLDRFLRCTTPIVPAYSLPKTQIKNLNPLWYPLESQSVEYFRLGDFWDCFDEWSAYGAGVPIVSETGETLVQYYVPYLSAIQIFTSHSVINTLREETESGDSGSESCSEEWRWEGCSSSEEGFDHQEPLDRLGYSYLQYFERCTPYSRVPLMDKIKELGERYVGLRSLRSVDLSPASWMAVAWYPIYHIPMNRSIKDLSTCFLTYHTLSSSFQDVKREEEKERISVSAFGMATYKMQGRLWDNDRLLCFLSVADSWLKQLRVHHHDFTYFTTTTHYL
SNADPKEGVQYEVLSTSLENDGMAPVTEVFALSCGHCRNMENFLPVISQEAGTDIGKMHITFNQSAHIASMFYYAAEMQVDGAPDHAFMEDLFAATQMGEGTTLTEQQEAYSKAFTSRGLVSPYDFNEEQRDTLIKKVDNAKMLSEKSGISSVPTFVVNGKYNVLIGGHDDPKQIADTIRYLLEK
SNAENNQTTTTHSKVISHVFCTGTAKLGSVGPPIGLVDIGVSEVAYIFRVSLPGIEKNQDKIKCEIQREGRVCIQGVIPEIAIPSDTGCLYRMQVQQLCPPGPFSITFNLPGQVDPRLFSPNFRSDGIFEVVVVKLGVRIPTS
SNAGMKAADFTYVTVHGDNSRMSRLKAQYTMLFFYDPDCSNCRKFEKLFAEIPAFVEMVENGTLRVLAIYPDENREEWATKAVYMPQGWIVGWNKAGDIRTRQLYDIRATPTIYLLDGRKRVILKDTSMEQLIDYLATQAGK
SNAKSEIGKYAPFFSLPNAKGEKITRSSDAFKQKSLLINFWASWNDSISQKQSNSELREIYKKYKKNKYIGMLGISLDVDKQQWKDAIKRDTLDWEQVCDFGGLNSEVAKQYSIYKIPANILLSSDGKILAKNLRGEELKKKIENIVEEA
SNAMALGFGMKMELQQFLDALASSPEKIEFETTMAVIEDNYDFTPAAFTNGNTQNDANENNGSCKIFAFGLLNALDKEATLACFGRFYREDVLLHPENNDHQNIRNFMVTGWEGIQFETSALTAK
SNAMENEKILNPIIIQRADPMIYKHNDGYYYFTASVPEYDRIEVRKAKTIEGLRNAEPVDVWRRHESGEMSNLIWAPEIHFINGAWYIYFAAAPDKNIEDDTFNHRMFVIQNENENPFTGNWVEKGRIKTAWESFSLDATIFEHNEKLYYVWAQQDINIKGHSNIYIAEMENPWTLKTKPVMLTKPELEWEIKGFWVNEGPAVLKKNGKIFITYSASATDVNYCIGMLTAEENSNLLDKNSWTKSQTPVFKTSMENHQYGPGHNSFTVSEDGKHDVIVYHARNYTEIKGDPLYDPNRHTRAQIINWREDGTPDFGVPEVDSLEIETPVKA
SNAMKPDIYENNREGILCVYKNEKWLVCIKNWKPDNDIEGIAHLEIHHSTDEQFILSAGKAILITAEKENDKFNIELTLMEKGKVYNVPAECWFYSITQKDTKMMYVQDSNCSMDNSDFCDLSKEEIEYIQTNARKLFEK
SNAMLGGIEAGGTKFVCAVGREDGTIIDRIEFPTKMPDETIEKVIQYFSQFSLQAIGIGSFGPVDNDKTSQTYGTITATPKAGWRHYPFLQTVKNEMKIPVGFSTDVNAAALGEFLFGEAKGLDSCLYITIGTGIGAGAIVEGRLLQGLSHPEMGHIYIRRHPDDVYQGKCPYHGDCFEGLASGPAIEARWGKKAADLSDIAQVWELEGYYIAQALAQYILILAPKKIILGGGVMQQKQVFSYIYQYVPKIMNSYLDFSELSDDISDYIVPPRLGSNAGIIGTLVLAHQALQAEAASGEVRS
SNAMLTFYEYPKCSTCRRAKAELDDLAWDYDAIDIKKNPPAASLIRNWLENSGLELKKFFNTSGQSYRALGLKDKLHQLSLDEAANLLASDGMLIKRPLLVKEGKIVQIGYRTAYEDLDF
